Tests used:
Assay in all cases: IP/MS, LZTR1 R810W-FLAG, U87
[1] = molecular target: T1, SLC4A2 (human, UniProt P04920 1-1241, limits assumed)
T1 sequence (looked up): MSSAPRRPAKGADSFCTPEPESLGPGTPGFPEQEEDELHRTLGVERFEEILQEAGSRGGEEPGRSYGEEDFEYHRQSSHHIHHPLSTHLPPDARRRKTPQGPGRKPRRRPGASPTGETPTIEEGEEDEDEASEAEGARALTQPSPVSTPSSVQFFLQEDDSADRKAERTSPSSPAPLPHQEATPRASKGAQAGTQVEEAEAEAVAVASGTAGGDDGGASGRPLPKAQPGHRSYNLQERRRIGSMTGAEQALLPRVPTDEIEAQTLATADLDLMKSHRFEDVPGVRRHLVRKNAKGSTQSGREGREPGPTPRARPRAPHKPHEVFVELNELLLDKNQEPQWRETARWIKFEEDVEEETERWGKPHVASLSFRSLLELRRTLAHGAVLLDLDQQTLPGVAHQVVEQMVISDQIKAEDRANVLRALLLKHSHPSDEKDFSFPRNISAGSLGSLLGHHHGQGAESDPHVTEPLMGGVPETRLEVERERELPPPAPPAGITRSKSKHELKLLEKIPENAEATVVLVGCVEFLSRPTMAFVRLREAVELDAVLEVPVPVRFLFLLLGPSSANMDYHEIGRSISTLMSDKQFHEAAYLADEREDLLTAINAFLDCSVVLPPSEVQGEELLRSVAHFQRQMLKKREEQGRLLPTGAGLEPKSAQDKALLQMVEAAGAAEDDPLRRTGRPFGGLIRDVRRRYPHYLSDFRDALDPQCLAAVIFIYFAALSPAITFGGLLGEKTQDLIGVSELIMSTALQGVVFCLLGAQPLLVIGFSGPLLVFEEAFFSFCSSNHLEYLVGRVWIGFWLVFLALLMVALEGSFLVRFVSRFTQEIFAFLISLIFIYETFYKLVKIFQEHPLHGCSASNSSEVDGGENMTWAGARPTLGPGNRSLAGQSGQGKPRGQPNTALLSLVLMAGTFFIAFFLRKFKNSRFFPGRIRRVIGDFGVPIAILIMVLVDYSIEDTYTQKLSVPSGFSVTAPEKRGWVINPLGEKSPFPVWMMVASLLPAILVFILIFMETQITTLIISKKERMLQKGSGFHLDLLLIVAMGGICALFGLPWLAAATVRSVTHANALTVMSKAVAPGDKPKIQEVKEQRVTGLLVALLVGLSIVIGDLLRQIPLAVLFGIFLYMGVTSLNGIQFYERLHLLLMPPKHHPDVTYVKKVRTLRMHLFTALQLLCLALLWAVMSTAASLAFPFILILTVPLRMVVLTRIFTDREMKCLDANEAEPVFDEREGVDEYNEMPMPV
How it was run: (§1)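 Gel slices were reduced with 5 mM DTT, alkylated with 11 mM IAA and digested overnight at 37° C. with trypsin. Peptides were analysed on an Orbitrap Fusion Tribrid by LC-MS/MS.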

[2] = molecular target: POLR1A (human, UniProt O95602 1-1720)
POLR1A, sequence (O95602 whole entry): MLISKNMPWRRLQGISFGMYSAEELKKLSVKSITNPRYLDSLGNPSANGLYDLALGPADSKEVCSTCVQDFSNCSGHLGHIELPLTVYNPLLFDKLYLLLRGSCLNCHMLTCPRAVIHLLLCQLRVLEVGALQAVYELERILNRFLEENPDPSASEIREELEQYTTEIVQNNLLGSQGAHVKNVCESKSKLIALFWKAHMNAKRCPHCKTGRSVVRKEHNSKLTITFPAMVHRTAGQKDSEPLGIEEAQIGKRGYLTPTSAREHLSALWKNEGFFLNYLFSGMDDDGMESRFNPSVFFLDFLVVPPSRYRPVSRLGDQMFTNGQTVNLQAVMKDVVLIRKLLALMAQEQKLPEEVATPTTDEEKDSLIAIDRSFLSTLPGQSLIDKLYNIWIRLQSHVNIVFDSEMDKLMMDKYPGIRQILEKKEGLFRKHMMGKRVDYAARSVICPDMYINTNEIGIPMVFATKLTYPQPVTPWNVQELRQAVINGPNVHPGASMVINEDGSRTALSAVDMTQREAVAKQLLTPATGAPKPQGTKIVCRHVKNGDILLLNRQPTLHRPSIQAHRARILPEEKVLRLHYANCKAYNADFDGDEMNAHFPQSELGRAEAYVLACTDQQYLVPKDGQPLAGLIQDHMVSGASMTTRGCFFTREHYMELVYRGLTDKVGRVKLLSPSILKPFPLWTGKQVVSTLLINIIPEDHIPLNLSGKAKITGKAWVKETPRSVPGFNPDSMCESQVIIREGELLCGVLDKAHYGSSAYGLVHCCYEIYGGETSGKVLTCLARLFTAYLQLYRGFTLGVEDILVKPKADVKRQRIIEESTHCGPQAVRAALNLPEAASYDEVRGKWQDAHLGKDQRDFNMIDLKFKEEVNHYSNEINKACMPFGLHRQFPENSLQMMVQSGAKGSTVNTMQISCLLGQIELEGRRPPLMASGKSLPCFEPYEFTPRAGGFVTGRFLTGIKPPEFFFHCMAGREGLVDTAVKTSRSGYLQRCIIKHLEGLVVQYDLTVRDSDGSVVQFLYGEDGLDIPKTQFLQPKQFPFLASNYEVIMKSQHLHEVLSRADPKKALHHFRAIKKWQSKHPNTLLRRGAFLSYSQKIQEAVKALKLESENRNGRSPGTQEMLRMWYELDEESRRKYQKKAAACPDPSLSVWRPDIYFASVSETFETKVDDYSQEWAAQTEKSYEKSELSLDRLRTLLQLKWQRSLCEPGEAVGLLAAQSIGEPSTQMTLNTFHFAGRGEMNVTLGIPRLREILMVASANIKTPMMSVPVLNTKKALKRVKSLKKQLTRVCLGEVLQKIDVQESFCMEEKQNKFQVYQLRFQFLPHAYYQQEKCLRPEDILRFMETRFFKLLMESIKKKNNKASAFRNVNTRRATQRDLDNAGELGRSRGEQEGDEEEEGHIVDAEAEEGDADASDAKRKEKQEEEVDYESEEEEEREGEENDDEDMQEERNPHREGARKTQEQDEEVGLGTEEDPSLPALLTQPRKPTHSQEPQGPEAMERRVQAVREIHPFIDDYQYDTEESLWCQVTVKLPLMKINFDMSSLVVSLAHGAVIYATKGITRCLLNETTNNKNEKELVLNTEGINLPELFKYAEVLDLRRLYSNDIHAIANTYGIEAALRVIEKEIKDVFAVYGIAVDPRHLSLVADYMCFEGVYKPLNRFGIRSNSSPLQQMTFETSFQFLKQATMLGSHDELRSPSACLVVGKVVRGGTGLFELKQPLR
How it was run: as §1

[3] = molecular target: T2, PARP10 (human, UniProt Q53GL7 1-1025)
T2 sequence (looked up): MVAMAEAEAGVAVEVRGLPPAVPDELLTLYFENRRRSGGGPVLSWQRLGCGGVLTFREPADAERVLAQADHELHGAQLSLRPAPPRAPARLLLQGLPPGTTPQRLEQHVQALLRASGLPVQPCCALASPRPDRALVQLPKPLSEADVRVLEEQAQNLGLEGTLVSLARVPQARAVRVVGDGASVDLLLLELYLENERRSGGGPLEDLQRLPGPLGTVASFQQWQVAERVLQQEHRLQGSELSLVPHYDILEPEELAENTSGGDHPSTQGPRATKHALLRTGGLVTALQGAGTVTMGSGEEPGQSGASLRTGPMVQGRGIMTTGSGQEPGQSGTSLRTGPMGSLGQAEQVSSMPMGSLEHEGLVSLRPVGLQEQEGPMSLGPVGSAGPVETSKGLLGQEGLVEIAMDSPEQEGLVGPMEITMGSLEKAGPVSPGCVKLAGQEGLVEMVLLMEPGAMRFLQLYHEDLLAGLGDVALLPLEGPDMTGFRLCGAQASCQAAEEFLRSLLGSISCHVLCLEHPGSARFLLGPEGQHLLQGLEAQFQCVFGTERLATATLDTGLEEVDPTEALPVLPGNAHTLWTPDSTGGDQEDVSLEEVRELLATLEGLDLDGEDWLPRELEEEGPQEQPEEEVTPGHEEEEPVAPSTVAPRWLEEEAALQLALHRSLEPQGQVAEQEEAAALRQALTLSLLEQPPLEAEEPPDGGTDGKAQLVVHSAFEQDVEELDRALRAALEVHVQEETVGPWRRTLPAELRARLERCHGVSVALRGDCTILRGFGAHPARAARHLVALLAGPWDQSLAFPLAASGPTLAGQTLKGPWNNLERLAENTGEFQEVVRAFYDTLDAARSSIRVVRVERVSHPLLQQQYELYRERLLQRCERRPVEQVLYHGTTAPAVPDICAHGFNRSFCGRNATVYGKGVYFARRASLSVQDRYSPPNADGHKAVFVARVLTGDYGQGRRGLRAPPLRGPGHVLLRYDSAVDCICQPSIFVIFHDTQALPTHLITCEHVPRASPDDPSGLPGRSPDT
How it was run: as §1

Measured: binding result

B1: LZTR1 R810W-FLAG (other, human, UniProt Q8N653 1-840, looked up)
chain: MAGPGSTGGQIGAAALAGGARSKVAPSVDFDHSCSDSVEYLTLNFGPFETVHRWRRLPPCDEFVGARRSKHTVVAYKDAIYVFGGDNGKTMLNDLLRFDVKDCSWCRAFTTGTPPAPRYHHSAVVYGSSMFVFGGYTGDIYSNSNLKNKNDLFEYKFATGQWTEWKIEGRLPVARSAHGATVYSDKLWIFAGYDGNARLNDMWTIGLQDRELTCWEEVAQSGEIPPSCCNFPVAVCRDKMFVFSGQSGAKITNNLFQFEFKDKTWTRIPTEHLLRGSPPPPQRRYGHTMVAFDRHLYVFGGAADNTLPNELHCYDVDFQTWEVVQPSSDSEVGGAEVPERACASEEVPTLTYEERVGFKKSRDVFGLDFGTTSAKQPTQPASELPSGRLFHAAAVISDAMYIFGGTVDNNIRSGEMYRFQFSCYPKCTLHEDYGRLWESRQFCDVEFVLGEKEECVQGHVAIVTARSRWLRRKITQARERLAQKLEQEAAPVPREAPGVAAGGARPPLLHVAIREAEARPFEVLMQFLYTDKIKYPRKGHVEDVLLIMDVYKLALSFQLCRLEQLCRQYIEASVDLQNVLVVCESAARLQLSQLKEHCLNFVVKESHFNQVIMMKEFERLSSPLIVEIVRRKQQPPPRTPLDQPVDIGTSLIQDMKAYLEGAGAEFCDITLLLDGHPRPAHKAILAARSSYFEAMFRSFMPEDGQVNISIGEMVPSRQAFESMLRYIYYGEVNMPPEDSLYLFAAPYYYGFYNNRLQAYCKQNLEMNVTVQNVLQILEAADKTQALDMKRHCLHIIVHQFTKVSKLPTLWSLSQQLLLDIIDSLASHISDKQCAELGADI
notes: Stably expressed in U87 cells by lentivirus; also called LZTR1-FLAG-R810W; LZTR1 RW; not shown: FLAG tag
binds: all assays above
